In the NTF2 design screens of Basanta et al. (2020):

Experiment: protease stability score; higher = more stable; yeast display proteolysis, trypsin and chymotrypsin;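 further: relative to predicted unfolded state with 0 unfolded-like and 1 meaning tenfold more protease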

Sequence	protease stability score
DERTEFLERMSEHLTHVWHTGNEELWNRLADPRARFIEFVDGKKNHHHGMEVASNRIKKWRKDLGIDHVRLKEERVQGNKVELHLQVDINGVEQTVEIYNSIVDGRFESLEVNIHTR	0.074
DERTEHFREYREKVLESIETGDPRVIKEMLDPNAKVEIVIGEKNFDLHGREEVMRWYEEWVEKYKGMRIHINHVEVQGEKIIVDSELEVNGKSHKTDLIITAFNGVIKETRVEIN	1.06
DERTEHNRQLAEEITRALLTGDWHEIEKQADPHVKFRQGEFSYVGREDLVRFWEEFIKKIKNITLRIREIRVIGDKVHIHNDLKIGDKETHVHIILVLIDGRLHHLEIRIE	1.45
DERTEHSEENVKLFIEALRTGDFKTLLRLVDPHVRVIVIINGKEINNHGWEEFLRWMREEFERYPNLRVKVRHLDIQGDFVRVEGHLEVGDKSHRIHLHLLIINGVVELELYIFR	1.92
DERTELTRNFFEEMVDTMITGNEHLEHRLADPNVRIYVGEKRIHGMERYIHQHHQWRFKDFKLKDIDTQGDKATIDGHLEGEVNGKDTRTDVEVHTLKFNGRWLIHTLRIR	1.1
DERTEVSEEFHRILIKVWRTGDETLSHQLADPHAKAEIGDKTIHGRDLWKEVFRRESERYDHYDSRLKDVKVQGDYINLDVHLILHVDGVPVRTDVIEIVLKFNGRWRLHSFHVK	0.684
DERTEYFIREAREMLRDWVTGDWKRLHELMDPNARQDVNGVKNVGRDELSEFFEKFRERFDVYELRITEERHQGNKFIVKGDFHSNQGEFTFHHELEVHIVVVNGQFKRIEMRIR	1.55
DERTHHLEQLYRRMYEHWETGDEKFHRELLDPHARVDINGQDVHGMHWIEEEMRMQREHIRIEHVIIKSIEIVDGKIHMNGIILGDINGRRVNVEVRFHVIIINGKARLVEVKIL	0.025
DERTKEDEKWAKLFLEWHKTGNEEAFSHFADPHTRNTINGVELIGRESLMEFSKRWIEELRFKQLHIRDFKVVNGRVHIDSELHGIINGQEISTTVKIHIDIINGQTKSVEVRIL	1.17
DERTKQFNELLHIFIRDLHTGDEESHERMMDPNVRTEVGEFRMHGRENVRHWWHEWLRLLGLDRIEVRVRDHHVIDGRLRIDVELKQGDKNIDTHVILVVINGRMHSQRYEFH	0.717
DERTKSYELALRIIEHVNKTGDEEMSTHMADPNARVVQGEKEIHGRELFIRWMKEIRVEDIKHRDKTIIGDKLILRVDIHGIIDGRHEDFHVILIVTKVNGRWHLEEVRIH	1.36
DERTLEQLLQDFINNMQTGDHQSLKDLLDENARVNIGDKTLSGRERVTTALKRLMRRVDHIQVDHYEVTNGEMNIDMQLEVNGVRVKVEVIIEVHNGKAKFIEFRVRNEEQWERVEG	2.19
DESAVNNLVRLAKAWLRGDPKKIEHLVDKDAKAQIGDKTLHGREDLKDHADELRKDMTVDVKSVTNNNQNGQAVVDVKFEADRNGRPETHTLDAKATAHNGDIVDVKIHQDG	-0.049
DESDKEREDVFRSWIESMRTGDEKNMRELMDPHARTEIGDKEYHGREVVEYIRREWRITHVELHRIEKQGDKIISHGHDEINIDGRKLYIHSRIIARKVNGVWIIESLEFH	1.29
DESDKYVHHVAELMIEWFLTGDEELFEEYADPNMRVIFENHENHGREEVMKHMHDWWRKVKNVRVEYRIRDVQFQGDKARIEGELIIRIDGRNVIREVEYHILVIDGVLHSYKLVYK	1.47
DESDTLAKEATREFEEFMRTGDEHSLLKLADPHVRLFWNGKQLVGREDYSKHIKFLLEHFGFDNIESRTEHIDWQGDKLRLHLRMHVNGKTITVEIHSEKINGRWMNREIHFT	1.44
DESEDAVRKSMELWEESMRTGNEERLIELVDPNVRLDINGQIYHGWSQFVEVIFNEFRHARLESIEIHEVRLQGDKIRSRTTLVIRINGRLKHLDVRFIVKKVDGRWQIHSEERE	1.31
DESEEDVEYFVKILDRAWATGDEDTLRRLLDPHYRVHVDGKDIIGREEVVRLFKEMGWELRFHRDHIHVQGDKMFIHGTLRLIYNGRIEEREIHLDVNKINGRWLNERVEIR	1.81

Sequence	protease stability score
DESEEEMKKAFKDLVDSLLTGDEHLLRTFADPNMRLRIGDKTFHGRETYSEIFLKEWKKLGIKHYQVTIHHLEVQGDKIHVDTRVNVHIGDWTIHRETRLHITKVNGQWILRQEDVD	0.416
DESEEESHKVAELVIKIWETGDEHIWENLADPHTRYEIDGKIIHGREIASHIMRIFLERVKNVTFRIKDVKRHVYNGVIEVRNETELNIGDKRIDTHIMVILRKVNGRWYMTEVRFQID	1.53
DESEEHSEIMLRILHHALRTGDEEEITRLLDPHVRVIIGDKHYHGWEDYVKTVFTTAKEMRMHIHITDSKVQGNYVHLDTRLLIHYNGKTFTYNTRLVTVKVNGQWRLHSETSH	1
DESEEKAREFLEILVRDVRTGDEESAVRLLDPNVRIEQGDKELHGWEVYIHWAKHIRMRSVHLRTMEVQGDKVILRGDERQEIDGVESVRDVIVYVRKINGRWVMTSIEVL	2.15
DESEELAERLLEEMEELILTGDWEKFVRMVDPHARFVIGEFDNHGRETFVKELLELRVHIRDSRIREIDVQGEKIRMHTQIDFEIDVDGVRHRREHSFHFIVLKIDGRWSVQQLRIK	0.64
DESEELAKQFMEVLARSMRTGDEEKIVKMLDPNVKVVINGVELHGREALEHILREIRVEDVWLTHIFVQGEKVRIDYREKGEFNGRLDTLTVHIIVKKIDGKWKITEFRIH	1.89
DESEELSRIASHLFLRMMHTGNEEEISKLADPNTRLDVNGKHFHGMELIIHFLHELRRKLGVKYIRLKSVHITIVNGKVDLELEGDLLQGDFEIPSHIRNIALKVDGKWFIHRQEFRFE	1.32
DESEELTEELSRLWLHWYLTGDEEIFKHNFDPNARQDYNGKEIHGRDRVVRFLEELWRMLGAKHFHIRHEEYYGNKVRIEGHITVGDKHRETEIQINIINGKIKEIRIEVK	2.12
DESEELTKEAKRVYYETMRTGDEHNLKRLMDPNTRMDFNGVEFHGREAVKILVEQADHLEDVRIKRERVDEHEVELHGEFHGKVNGRHTTTHVILFWLKYNGRWRVKELQVR	0.84
DESEELVRRFLEERIQDLRTGNWERIHENLDPNVRLIVNGRIFHGREALHVFRRRVDHNEDEKIRDVRIQGDKAEVDMEVLGVVNGVRTNFEAKLIMTKFDGKWSVKEVQID	1.75
DESEERSRHATELFIRAIHTGDEHTLMNLLDPHVRTHYGDKEVHGRENVVKVMLELLHKLGADHVRWEYHDFKDINGRLHMDWRLHVVVGDKELTLQTHIITEKINGRWHSKYMEIR	0.183
DESEESALKFLKEWREHFRTGNEDHMEELADPNVRVVIGDKEYHGWEETSRLISEKLRHMRVKFVLHTIRVVDGRIHVKSSLIIEVGDKELRVETSYHFEKVNGRWRLRVIHQE	1.27
DESEESIRKVVKLLERAHRTGDEHEMKHLLDPNAKLIINGVELHGMELFEKLFKFERHHWRLHSMHVRHVDTQGDKANSDGEEDREFDGRREEVKTIIVMVKIDGRWHVKHIIFL	1.08
DESEESMRHALEEIIESMVTGDEDRLRELADPNVRSKVNGRDIHGWKVVSKLVKELRIRDVKVEDKDREVQGEWMYFHGLFRIDGEFDGRRVDLELDLTIIAHKVNGRWVIRMFKYR	1.63
DESEESSKEAWRLLLEMWKTGDEDEYSRMIDPNVRIEIGDKHFHGMEHASKRLQTFLKKLGFKHFRMILRDKDSQGNKIEIDLQIDIHQGDYHIHRRVTLILVKVDGKWSVESHHVI	1.68
DESEETAVRMFKHWIRMIETGDEDSLEELADPNVRLEVNGQEVHGRELFLRFFLEMRIKRVRLRHIETQGEKLIIHGELDGEINGRRQETRVIIIVRKVDGKWIIKSIRIE	2.76
DESEHAAKHVSELFRELVDTGDEKFHEEFADPNVRLDYGDKHYHGREIQLRIFREWRIHHIEDKDVEVQGDKIFVDGRLDGTVDGRRQHYKIILIWRKVNGRWLSTQIRFH	1.59
DESEKDSHMASLHIIELIETGDWRELRELLDPRTRLHIGDKDIHGREEALRNIIRVWHHMRIHRVHIRSIRLQGDYVRVEFEVDGTIDGKHHRIEVEFVAQKIDGRWHLKSEIYH	1.12
